Data as given in the supplement of paper PMC11246515.
± gives the standard deviation of the averaged measurements.

Assay: total protein half-life in vivo (active degradation + dilution); higher = more stable protein
[1] = E. coli NCM3722 delta-clpP delta-lon delta-hslV, growth: N-lim chemostat, doubling time 6 h
[2] = E. coli NCM3722 delta-clpP, growth: N-lim chemostat, doubling time 6 h
[3] = E. coli NCM3722 delta-hslV, growth: N-lim chemostat, doubling time 6 h
[4] = E. coli NCM3722 delta-lon, growth: N-lim chemostat, doubling time 6 h
[5] = E. coli NCM3722 delta-smpB, growth: N-lim chemostat, doubling time 6 h
[6] = wild type E. coli NCM3722, growth: C-lim chemostat, doubling time 3 h
[7] = wild type E. coli NCM3722, growth: C-lim chemostat, doubling time 6 h
[8] = wild type E. coli NCM3722, growth: C-lim chemostat, doubling time 12 h
[9] = wild type E. coli NCM3722, growth: N-lim chemostat, doubling time 6 h
[10] = wild type E. coli NCM3722, growth: N-lim chemostat, doubling time 12 h
[11] = wild type E. coli NCM3722, growth: P-lim chemostat, doubling time 6 h
[12] = wild type E. coli NCM3722, growth: P-lim chemostat, doubling time 12 h

Row | Sequence | total protein half-life in vivo [1] [h] | total protein half-life in vivo [2] [h] | total protein half-life in vivo [3] [h] | total protein half-life in vivo [4] [h] | total protein half-life in vivo [5] [h] | total protein half-life in vivo [6] [h] | total protein half-life in vivo [7] [h] | total protein half-life in vivo [8] [h] | total protein half-life in vivo [9] [h] | total protein half-life in vivo [10] [h] | total protein half-life in vivo [11] [h] | total protein half-life in vivo [12] [h]
1 | MLNAWHLPVPPFVKQSKDQLLITLWLTGEDPPQRIMLRTEHDNEEMSVPMHKQRSQPQPGVTAWRAAIDLSSGQPRRRYSFKLLWHDRQRWFTPQGFSRMPPARLEQFAVDVPDIGPQWAADQIFYQIFPDRFARSLPREAEQDHVYYHHAAGQEIILRDWDEPVTAQAGGSTFYGGDLDGISEKLPYLKKLGVTALYLNPVFKAPSVHKYDTEDYRHVDPQFGGDGALLRLRHNTQQLGMRLVLDGVFNHSGDSHAWFDRHNRGTGGACHNPESPWRDWYSFSDDGTALDWLGYASLPKLDYQSESLVNEIYRGEDSIVRHWLKAPWNMDGWRLDVVHMLGEAGGARNNMQHVAGITEAAKETQPEAYIVGEHFGDARQWLQADVEDAAMNYRGFTFPLWGFLANTDISYDPQQIDAQTCMAWMDNYRAGLSHQQQLRMFNQLDSHDTARFKTLLGRDIARLPLAVVWLFTWPGVPCIYYGDEVGLDGKNDPFCRKPFPWQVEKQDTALFALYQRMIALRKKSQALRHGGCQVLYAEDNVVVFVRVLNQQRVLVAINRGEACEVVLPASPFLNAVQWQCKEGHGQLTDGILALPAISATVWMN | 6.31 ± 0.59 | 6.88 ± 1.2 | 2.49 ± 0.11 | 2.59 ± 0.38 | 2.28 ± 0.031 | 2.48 ± 0.074 | 3.86 ± 0.075 | 6.87 ± 1.4 | 2.18 | 3.45 ± 0.98 | 5 ± 0.27 | 7.49 ± 0.34
2 | MLNERQLKIVDLLEQQPRTPGELAQQTGVSGRTILRDIDYLNFTLNGKARIFASGSAGYQLEIFERRSFFQLLQKHDNDDRLLALLLLNTFTPRAQLASALNLPETWVAERLPRLKQRYERTCCLASRPGLGHFIDETEEKRVILLANLLRKDPFLIPLAGITRDNLQHLSTACDNQHRWPLMQGDYLSSLILAIYALRNQLTDEWPQYPGDEIKQIVEHSGLFLGDNAVRTLTGLIEKQHQQAQVISADNVQGLLQRVPGIASLNIIDAQLVENITGHLLRCLAAPVWIAEHRQSSMNNLKAAWPAAFDMSLHFITLLREQLDIPLFDSDLIGLYFACALERHQNERQPIILLSDQNAIATINQLAIERDVLNCRVIIARSLSELVAIREEIEPLLIINNSHYLLDDAVNNYITVKNIITAAGIEQIKHFLATAFIRQQPERFFSAPGSFHYSNVRGESWQHITRQICAQLVAQHHITADEAQRIIAREGEGENLIVNRLAIPHCWSEQERRFRGFFITLAQPVEVNNEVINHVLIACAAADARHELKIFSYLASILCQHPAEIIAGLTGYEAFMELLHKG | 6.57 | – | – | – | – | – | – | – | – | – | – | –
3 | MLNIVLYEPEIPPNTGNIIRLCANTGFRLHIIEPMGFAWDDKRLRRAGLDYHEFTAVTRHHDYRAFLEAENPQRLFALTTKGTPAHSAVSYQDGDYLMFGPETRGLPASILDALPAEQKIRIPMVPDSRSMNLSNAVSVVVYEAWRQLGYPGAVLRD [P0AGJ7] | 5.27 ± 0.13 | – | 5.83 ± 0.49 | 5.54 ± 0.16 | 4.82 ± 0.33 | 2.91 ± 0.35 | 6.26 | 13.8 ± 2.8 | 5.23 | 8.21 ± 0.38 | 5.93 ± 0.22 | 11.9 ± 0.24
4 | MLNKLSLLLKDAGISLTDHQKNQLIAYVNMLHKWNKAYNLTSVRDPNEMLVRHILDSIVVAPYLQGERFIDVGTGPGLPGIPLSIVRPEAHFTLLDSLGKRVRFLRQVQHELKLENIEPVQSRVEEFPSEPPFDGVISRAFASLNDMVSWCHHLPGEQGRFYALKGQMPEDEIALLPEEYQVESVVKLQVPALDGERHLVVIKANKI [P0A6U5] | 5.85 ± 1.7 | 4.636 ± 0.041 | – | 5.33 ± 0.68 | 4.48 ± 0.18 | 3.51 ± 0.68 | – | 10.5 ± 1.6 | 5.09 ± 0.33 | 8.45 ± 0.31 | 5.87 ± 0.69 | 13.1 ± 2
5 | MLNLFVGLDIYTGLLLLLALAFVLFYEAINGFHDTANAVAAVIYTRAMQPQLAVVMAAFFNFFGVLLGGLSVAYAIVHMLPTDLLLNMGSTHGLAMVFSMLLAAIIWNLGTWFFGLPASSSHTLIGAIIGIGLTNALLTGSSVMDALNLREVTKIFSSLIVSPIVGLVIAGGLIFLLRRYWSGTKKRDRIHRIPEDRKKKKGKRKPPFWTRIALIVSAAGVAFSHGANDGQKGIGLVMLVLVGIAPAGFVVNMNASGYEITRTRDAVTNFEHYLQQHPELPQKLIAMEPPLPAASTDGTQVTEFHCHPANTFDAIARVKTMLPGNMESYEPLSVSQRSQLRRIMLCISDTSAKLAKLPGVSKEDQNLLKKLRSDMLSTIEYAPVWIIMAVALALGIGTMIGWRRVAMTIGEKIGKRGMTYAQGMAAQMTAAVSIGLASYIGMPVSTTHVLSSAVAGTMVVDGGGLQRKTVTSILMAWVFTLPAAIFLSGGLYWIALQLI | 6.37 | 5.68 | – | – | 5.61 ± 0.43 | – | – | – | 6.47 | – | 6.03 ± 0.27 | 13.1
6 | MLNRYPLWKYVMLIVVIVIGLLYALPNLFGEDPAVQITGARGVAASEQTLIQVQKTLQEEKITAKSVALEEGAILARFDSTDTQLRAREALMGVMGDKYVVALNLAPATPRWLAAIHAEPMKLGLDLRGGVHFLMEVDMDTALGKLQEQNIDSLRSDLREKGIPYTTVRKENNYGLSITFRDAKARDEAIAYLSKRHPDLVISSQGSNQLRAVMSDARLSEAREYAVQQNINILRNRVNQLGVAEPVVQRQGADRIVVELPGIQDTARAKEILGATATLEFRLVNTNVDQAAAASGRVPGDSEVKQTREGQPVVLYKRVILTGDHITDSTSSQDEYNQPQVNISLDSAGGNIMSNFTKDNIGKPMATLFVEYKDSGKKDANGRAVLVKQEEVINIANIQSRLGNSFRITGINNPNEARQLSLLLRAGALIAPIQIVEERTIGPTLGMQNIEQGLEACLAGLLVSILFMIIFYKKFGLIATSALIANLILIVGIMSLLPGATLSMPGIAGIVLTLAVAVDANVLINERIKEELSNGRTVQQAIDEGYRGAFSSIFDANITTLIKVIILYAVGTGAIKGFAITTGIGVATSMFTAIVGTRAIVNLLYGGKRVKKLSI [P0AG90] | 7.05 ± 0.45 | 6.58 ± 0.21 | 6.5 ± 0.39 | 6.33 ± 0.36 | 5.92 ± 0.46 | 3.51 ± 0.36 | 5.86 ± 0.32 | 12.6 ± 2 | 6.19 ± 0.036 | 12.1 ± 0.19 | 6.36 ± 0.41 | 12.2 ± 0.8
7 | MLNTLIVGASGYAGAELVTYVNRHPHMNITALTVSAQSNDAGKLISDLHPQLKGIVDLPLQPMSDISEFSPGVDVVFLATAHEVSHDLAPQFLEAGCVVFDLSGAFRVNDATFYEKYYGFTHQYPELLEQAAYGLAEWCGNKLKEANLIAVPGCYPTAAQLALKPLIDADLLDLNQWPVINATSGVSGAGRKAAISNSFCEVSLQPYGVFTHRHQPEIATHLGADVIFTPHLGNFPRGILETITCRLKSGVTQAQVAQVLQQAYAHKPLVRLYDKGVPALKNVVGLPFCDIGFAVQGEHLIIVATEDNLLKGAAAQAVQCANIRFGYAETQSLI | 3.94 ± 0.2 | > 8 | 3.34 ± 0.5 | 4.24 ± 0.74 | 3.24 ± 0.057 | 2.67 ± 0.42 | 5.7 ± 1.4 | 9.58 ± 0.43 | 3.24 | 5.58 | 5.06 ± 0.19 | 9.57 ± 0.58
